Changes are numbered by the printed parent chain. Numbers in names are those of the source. Where “and” joins values, the source holds several entries; their conditions need not be identical. Equal values may be shown once.

The target of one experiment is F5111 IC LN35 (human, UniProt P60568 21-153). The experiment is described as follows: BLI.
Experiment [1] addresses hIL-2/F5111.2 complex (1:1 molar ratio) (human, UniProt P60568 21-153). The experiment can be described thus: BLI.
In experiment [2] the target is hIL-2/F5111 complex (1:1 molar ratio) (human, UniProt P60568 21-153). The experiment is described as follows: BLI.
Experiment [3] concerns the target Control (FITC-E2) IC LN35 (human, UniProt P60568 21-153). The experiment can be described thus: BLI.
The next experiment concerns the target F5111 IC LN15 (human, UniProt P60568 21-153). The experiment is described as follows: BLI.
The target of a further experiment is F5111.2 IC LN35 (human, UniProt P60568 21-153). The experiment can be described thus: BLI.
Experiment [4] deals with T1, Biotinylated human IL-2 (human, UniProt P60568 21-153, biotin on the biotin acceptor peptide (BirA ligase)). The experiment is described as follows: BLI.
The target of experiment [5] is yeast-displayed hIL-2 (residues 1-133) (human, UniProt P60568 21-153). The experiment is described as follows: FACS; yeast surface display.
Experiment [6] concerns the target T1, Biotinylated human IL-2. The experiment can be described thus: BLI; Fig S1E.
For the next experiment, the target named is F5111 IC LN25 (human, UniProt P60568 21-153). The experiment can be described thus: BLI.

T1 sequence (P60568 21-153): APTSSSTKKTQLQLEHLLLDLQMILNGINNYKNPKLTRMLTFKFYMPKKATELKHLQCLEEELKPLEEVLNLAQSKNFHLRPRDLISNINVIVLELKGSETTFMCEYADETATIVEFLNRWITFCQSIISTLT
yeast-displayed hIL-2 (residues 1-133), sequence (P60568 21-153): as above

B1: Biotinylated human IL-2Rα extracellular domain (residues 1-217) (receptor)
chain: ELCDDDPPEIPHATFKAMAYKEGTMLNCECKRGFRRIKSGSLYMLCTGNSSHSSWDNQCQCTSSATRNTTKQVTPQPEEQKERKTTEMQSPMQPVDQASLPGHCREPPPWENEATERIYHFVVGQMVYYQCVQGYRALHRGPAESVCKMTHGKTRWTQPQLICTGEMETSQFPGEEKPQASPEGRPESETSCLVTTTDFQIQTEMAATMETSIFTTE
modifications: biotin on the biotin acceptor peptide (BirA ligase)
As to B1, the Kd was 3.2 nM and 3 nM in the experiment with F5111 IC LN35; 68 nM in experiment [1]; 18 nM in experiment [2]; 2.5 nM and 3.4 nM in experiment [3]; 7.5 nM with F5111 IC LN15; 2.4 nM with F5111.2 IC LN35.

B2: F5111.2 Antibody (N297A) (antibody, V domains shown)
VH: QLQLQESGPGLVKPSQTLSLTCTVSGGSISSGGYYWSWIRQHPGKGLEWIGYIYKSGSAYYSPSLKSRVTISVDTSKNQFSLKLSSVTAADTAVYYCARTPTVTGDWFDPWGRGTLVTVSS
VL: NFMLTQPHSVSESPGKTVTISCTRSSGSIASNYVQWYQQRPGSSPTTVIYEDNQRPSGVPDRFSGSIDSSSNSASLTISGLKTEDEADYYCQTYDSIDVYFGGGTKLTVL
In the experiment with Biotinylated human IL-2 [4], B2 returned a Kd of 4.9 nM.

B3: F5111 antibody (antibody, V domains shown)
VH: B2 VH with K55Y, A59T, S62N
VL: B2 VL with T93S, I97S, D98N, Y100V
With B3, the Kd in experiment [5] turned out to be 0.42 nM; with Biotinylated human IL-2 [6] it was 2.1 nM; in the experiment with Biotinylated human IL-2 [4] it was 2.7 nM.

B4: Biotinylated human IL-2Rβ extracellular domain (residues 1-214) (receptor)
chain: AVNGTSQFTCFYNSRANISCVWSQDGALQDTSCQVHAWPDRRRWNQTCELLPVSQASWACNLILGAPDSQKLTTVDIVTLRVLCREGVRWRVMAIQDFKPFENLRLMAPISLQVVHVETHRCNISWEISQASHYFERHLEFEARTLSPGHTWEEAPLLTLKQKQEWICLETLTPDTQYEFQVRVKPLQGEFTTWSPWSQPLAFRTKPAALGKDT
modifications: biotin on the biotin acceptor peptide (BirA ligase)
On to B4, for which the Kd with F5111 IC LN25 is more than 2000 nM; in the experiment with F5111 IC LN35, more than 2000 nM; in experiment [1] it was more than 2000 nM; in [2], more than 2000 nM; in experiment [3], 4.1 nM and 4.4 nM; with F5111 IC LN15, 210 nM. The Kd in the experiment with F5111.2 IC LN35 is more than 2000 nM.

For the origin of these results see paper PMC9631798 (2022).
